Results reported in patent US20140087995A1 (published 2014).
Numbered stars: 1 amine (or outer) side, 2 acyl side, 3 side chain; on linkers, the order of the positions; unused ones are H or OH. Bridge positions count the residues as written; N and C are the ends. Side chains are listed from the residue outwards. Ends that are not written are not given here. * marks the point of attachment. C20 diacid = O=C(O)CCCCCCCCCCCCCCCCCCC(=O)*; γGlu = O=C(O)[C@H](CCC(=O)[*:2])N[*:1]

T1: human amylin receptor (human calcitonin receptor co-expressed with RAMP-3; amylin 3(a) receptor) (human, UniProt P30988 25-474; O60896 24-148, limits assumed)
T1 construct: whole, on cells; Used as cell membranes prepared from Amylin 3(a)/CRE-luc BHK cells (Assay V), not as intact cells; also called hAmylin-R; hAmylinR
T1 sequence (looked up) 1: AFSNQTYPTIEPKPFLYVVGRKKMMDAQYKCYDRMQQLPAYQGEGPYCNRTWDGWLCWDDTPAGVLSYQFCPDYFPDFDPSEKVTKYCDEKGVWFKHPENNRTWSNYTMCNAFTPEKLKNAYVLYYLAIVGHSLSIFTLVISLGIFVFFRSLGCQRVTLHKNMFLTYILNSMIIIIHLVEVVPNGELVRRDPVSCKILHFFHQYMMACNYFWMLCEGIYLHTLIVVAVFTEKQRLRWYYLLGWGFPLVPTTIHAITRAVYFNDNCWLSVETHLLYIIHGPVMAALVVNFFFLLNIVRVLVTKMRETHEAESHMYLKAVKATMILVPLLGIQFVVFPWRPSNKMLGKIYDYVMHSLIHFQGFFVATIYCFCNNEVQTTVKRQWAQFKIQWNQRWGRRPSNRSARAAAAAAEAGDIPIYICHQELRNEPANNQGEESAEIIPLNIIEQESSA
T1 sequence (looked up) 2: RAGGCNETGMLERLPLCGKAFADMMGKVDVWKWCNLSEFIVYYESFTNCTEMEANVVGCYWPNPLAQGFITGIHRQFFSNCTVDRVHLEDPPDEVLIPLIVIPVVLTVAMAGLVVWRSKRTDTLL

T2: human calcitonin receptor (human, UniProt P30988 25-474)
T2 construct: whole, on cells; Used as cell membranes prepared from the transfected BHK cells (Assay VII), not as intact cells; also called hCTR; hCT
T2 sequence (looked up): T1 sequence (looked up) 1

B1: N^ε1-[(4S)-4-carboxy-4-(19-carboxynonadecanoylamino)butanoyl]-[Arg14,Arg17,Pro21,Pro27,Pro31]-h-amylin (peptide)
peptide: K([γGlu-C20 diacid])CNTATCATQRLARFLRHSSPNFGAIPSSTPVGSNTY-NH2
modifications: disulfide 2-7; N-terminus assumed
SMILES: CC[C@H](C)[C@H](NC(=O)[C@H](C)NC(=O)CNC(=O)[C@H](Cc1ccccc1)NC(=O)[C@H](CC(N)=O)NC(=O)[C@@H]1CCCN1C(=O)[C@H](CO)NC(=O)[C@H](CO)NC(=O)[C@H](Cc1c[nH]cn1)NC(=O)[C@H](CCCNC(=N)N)NC(=O)[C@H](CC(C)C)NC(=O)[C@H](Cc1ccccc1)NC(=O)[C@H](CCCNC(=N)N)NC(=O)[C@H](C)NC(=O)[C@H](CC(C)C)NC(=O)[C@H](CCCNC(=N)N)NC(=O)[C@H](CCC(N)=O)NC(=O)[C@@H](NC(=O)[C@H](C)NC(=O)[C@@H]1CSSC[C@H](NC(=O)[C@@H](N)CCCCNC(=O)CC[C@H](NC(=O)CCCCCCCCCCCCCCCCCCC(=O)O)C(=O)O)C(=O)N[C@@H](CC(N)=O)C(=O)N[C@@H]([C@@H](C)O)C(=O)N[C@@H](C)C(=O)N[C@@H]([C@@H](C)O)C(=O)N1)[C@@H](C)O)C(=O)N1CCC[C@H]1C(=O)N[C@@H](CO)C(=O)N[C@@H](CO)C(=O)N[C@H](C(=O)N1CCC[C@H]1C(=O)N[C@H](C(=O)NCC(=O)N[C@@H](CO)C(=O)N[C@@H](CC(N)=O)C(=O)N[C@H](C(=O)N[C@@H](Cc1ccc(O)cc1)C(N)=O)[C@@H](C)O)C(C)C)[C@@H](C)O
notes: also called compound 63
B2: N^ε1-[(4S)-4-carboxy-4-(19-carboxynonadecanoylamino)butanoyl]-[Arg14,Arg17,Pro21,Pro27,Pro34]-h-amylin (peptide)
peptide: K([γGlu-C20 diacid])CNTATCATQRLARFLRHSSPNFGAIPSSTNVGPNTY-NH2
modifications: disulfide 2-7; N-terminus assumed
SMILES: CC[C@H](C)[C@H](NC(=O)[C@H](C)NC(=O)CNC(=O)[C@H](Cc1ccccc1)NC(=O)[C@H](CC(N)=O)NC(=O)[C@@H]1CCCN1C(=O)[C@H](CO)NC(=O)[C@H](CO)NC(=O)[C@H](Cc1c[nH]cn1)NC(=O)[C@H](CCCNC(=N)N)NC(=O)[C@H](CC(C)C)NC(=O)[C@H](Cc1ccccc1)NC(=O)[C@H](CCCNC(=N)N)NC(=O)[C@H](C)NC(=O)[C@H](CC(C)C)NC(=O)[C@H](CCCNC(=N)N)NC(=O)[C@H](CCC(N)=O)NC(=O)[C@@H](NC(=O)[C@H](C)NC(=O)[C@@H]1CSSC[C@H](NC(=O)[C@@H](N)CCCCNC(=O)CC[C@H](NC(=O)CCCCCCCCCCCCCCCCCCC(=O)O)C(=O)O)C(=O)N[C@@H](CC(N)=O)C(=O)N[C@@H]([C@@H](C)O)C(=O)N[C@@H](C)C(=O)N[C@@H]([C@@H](C)O)C(=O)N1)[C@@H](C)O)C(=O)N1CCC[C@H]1C(=O)N[C@@H](CO)C(=O)N[C@@H](CO)C(=O)N[C@H](C(=O)N[C@@H](CC(N)=O)C(=O)N[C@H](C(=O)NCC(=O)N1CCC[C@H]1C(=O)N[C@@H](CC(N)=O)C(=O)N[C@H](C(=O)N[C@@H](Cc1ccc(O)cc1)C(N)=O)[C@@H](C)O)C(C)C)[C@@H](C)O
notes: also called compound 65
B3: N^ε1-[(4S)-4-carboxy-4-(19-carboxynonadecanoylamino)butanoyl]-[Arg17,Pro21,Pro27,His35]-h-amylin (peptide)
peptide: K([γGlu-C20 diacid])CNTATCATQRLANFLRHSSPNFGAIPSSTNVGSHTY-NH2
modifications: disulfide 2-7; N-terminus assumed
SMILES: CC[C@H](C)[C@H](NC(=O)[C@H](C)NC(=O)CNC(=O)[C@H](Cc1ccccc1)NC(=O)[C@H](CC(N)=O)NC(=O)[C@@H]1CCCN1C(=O)[C@H](CO)NC(=O)[C@H](CO)NC(=O)[C@H](Cc1c[nH]cn1)NC(=O)[C@H](CCCNC(=N)N)NC(=O)[C@H](CC(C)C)NC(=O)[C@H](Cc1ccccc1)NC(=O)[C@H](CC(N)=O)NC(=O)[C@H](C)NC(=O)[C@H](CC(C)C)NC(=O)[C@H](CCCNC(=N)N)NC(=O)[C@H](CCC(N)=O)NC(=O)[C@@H](NC(=O)[C@H](C)NC(=O)[C@@H]1CSSC[C@H](NC(=O)[C@@H](N)CCCCNC(=O)CC[C@H](NC(=O)CCCCCCCCCCCCCCCCCCC(=O)O)C(=O)O)C(=O)N[C@@H](CC(N)=O)C(=O)N[C@@H]([C@@H](C)O)C(=O)N[C@@H](C)C(=O)N[C@@H]([C@@H](C)O)C(=O)N1)[C@@H](C)O)C(=O)N1CCC[C@H]1C(=O)N[C@@H](CO)C(=O)N[C@@H](CO)C(=O)N[C@H](C(=O)N[C@@H](CC(N)=O)C(=O)N[C@H](C(=O)NCC(=O)N[C@@H](CO)C(=O)N[C@@H](Cc1c[nH]cn1)C(=O)N[C@H](C(=O)N[C@@H](Cc1ccc(O)cc1)C(N)=O)[C@@H](C)O)C(C)C)[C@@H](C)O
notes: also called compound 60
B4: N^ε1-[(4S)-4-carboxy-4-(19-carboxynonadecanoylamino)butanoyl]-[Glu14,Arg17,Pro21,Pro27,Arg35]-h-amylin (peptide)
peptide: K([γGlu-C20 diacid])CNTATCATQRLAEFLRHSSPNFGAIPSSTNVGSRTY-NH2
modifications: disulfide 2-7; N-terminus assumed
SMILES: CC[C@H](C)[C@H](NC(=O)[C@H](C)NC(=O)CNC(=O)[C@H](Cc1ccccc1)NC(=O)[C@H](CC(N)=O)NC(=O)[C@@H]1CCCN1C(=O)[C@H](CO)NC(=O)[C@H](CO)NC(=O)[C@H](Cc1c[nH]cn1)NC(=O)[C@H](CCCNC(=N)N)NC(=O)[C@H](CC(C)C)NC(=O)[C@H](Cc1ccccc1)NC(=O)[C@H](CCC(=O)O)NC(=O)[C@H](C)NC(=O)[C@H](CC(C)C)NC(=O)[C@H](CCCNC(=N)N)NC(=O)[C@H](CCC(N)=O)NC(=O)[C@@H](NC(=O)[C@H](C)NC(=O)[C@@H]1CSSC[C@H](NC(=O)[C@@H](N)CCCCNC(=O)CC[C@H](NC(=O)CCCCCCCCCCCCCCCCCCC(=O)O)C(=O)O)C(=O)N[C@@H](CC(N)=O)C(=O)N[C@@H]([C@@H](C)O)C(=O)N[C@@H](C)C(=O)N[C@@H]([C@@H](C)O)C(=O)N1)[C@@H](C)O)C(=O)N1CCC[C@H]1C(=O)N[C@@H](CO)C(=O)N[C@@H](CO)C(=O)N[C@H](C(=O)N[C@@H](CC(N)=O)C(=O)N[C@H](C(=O)NCC(=O)N[C@@H](CO)C(=O)N[C@@H](CCCNC(=N)N)C(=O)N[C@H](C(=O)N[C@@H](Cc1ccc(O)cc1)C(N)=O)[C@@H](C)O)C(C)C)[C@@H](C)O
notes: also called compound 51
B5: N^ε1-[(4S)-4-carboxy-4-(19-carboxynonadecanoylamino)butanoyl]-[His14,Arg17,Pro21,Pro27,His35]-h-amylin (peptide)
peptide: K([γGlu-C20 diacid])CNTATCATQRLAHFLRHSSPNFGAIPSSTNVGSHTY-NH2
modifications: disulfide 2-7; N-terminus assumed
SMILES: CC[C@H](C)[C@H](NC(=O)[C@H](C)NC(=O)CNC(=O)[C@H](Cc1ccccc1)NC(=O)[C@H](CC(N)=O)NC(=O)[C@@H]1CCCN1C(=O)[C@H](CO)NC(=O)[C@H](CO)NC(=O)[C@H](Cc1c[nH]cn1)NC(=O)[C@H](CCCNC(=N)N)NC(=O)[C@H](CC(C)C)NC(=O)[C@H](Cc1ccccc1)NC(=O)[C@H](Cc1c[nH]cn1)NC(=O)[C@H](C)NC(=O)[C@H](CC(C)C)NC(=O)[C@H](CCCNC(=N)N)NC(=O)[C@H](CCC(N)=O)NC(=O)[C@@H](NC(=O)[C@H](C)NC(=O)[C@@H]1CSSC[C@H](NC(=O)[C@@H](N)CCCCNC(=O)CC[C@H](NC(=O)CCCCCCCCCCCCCCCCCCC(=O)O)C(=O)O)C(=O)N[C@@H](CC(N)=O)C(=O)N[C@@H]([C@@H](C)O)C(=O)N[C@@H](C)C(=O)N[C@@H]([C@@H](C)O)C(=O)N1)[C@@H](C)O)C(=O)N1CCC[C@H]1C(=O)N[C@@H](CO)C(=O)N[C@@H](CO)C(=O)N[C@H](C(=O)N[C@@H](CC(N)=O)C(=O)N[C@H](C(=O)NCC(=O)N[C@@H](CO)C(=O)N[C@@H](Cc1c[nH]cn1)C(=O)N[C@H](C(=O)N[C@@H](Cc1ccc(O)cc1)C(N)=O)[C@@H](C)O)C(C)C)[C@@H](C)O
notes: also called compound 66

Biological target: T1, human amylin receptor (human calcitonin …)
Experiment: ratio of hCTR binding IC50 to hAmylin-R binding IC50 (reference: human calcitonin receptor)
Method: The resulting pellet was resuspended, homogenized and centrifuged (20.000 rpm, 15 min) in a buffer containing 20 mM Na-HEPES and 0.1 mM EDTA (pH 7.4, buffer 2). The resulting pellet was resuspended in buffer 2 and protein concentration was measured (BCA protein Assay, Pierce). The homogenate was kept cold during the whole procedure. The membranes were kept at −80° C. until use. The assay was performed in a 384 well Optiplate (PerkinElmer) in a total volume of 40 ul. Membranes were mixed with SPA beads. Final concentration of membranes 35 ng/μL final and SPA beads was 0.05 mg/well. Test-compounds were dissolved in DMSO and further diluted in assay buffer (50 mM Hepes, pH 7.4, 1 mM CaCl2, 5 mM MgCl₂, 0.1% OA and 0.02% Tween20). […] The final mixture was incubated with shaking at 400 rpm for 120 min at 25° C. prior to centrifugation (1500 rpm, 10 min). Samples were analyzed on TopCounter™ (Packard). The IC₅₀ was calculated using (one site binding competition analysis) GraphPad Prism5 as a measure of receptor affinity.
Membranes were prepared in the following way; the cells were rinsed with PBS and incubated with Versene for approximately 5 min before harvesting. The cells were flushed with PBS and the cell-suspension was centrifuged for 5 min at 1000 rpm. Cells were homogenized (Ultrathurrax) in a buffer containing 20 mM Na-HEPES and 10 mM EDTA (pH 7.4) and centrifuged at 20.000 rpm for 15 min. The resulting pellet was resuspended, homogenized and centrifuged (20.000 rpm, 15 min) in a buffer containing 20 mM Na-HEPES and 0.1 mM EDTA (pH 7.4, buffer 2). The resulting pellet was resuspended in buffer 2 and protein concentration was measured (BCA protein Assay, Pierce). The homogenate was kept cold during the whole procedure. The membranes were kept at −80° C. until use. Assay was performed in a 384 well Optiplate (PerkinElmer) in a total volume of 40 ul. Membranes were mixed with SPA beads.

Question: How did the “Ratio hCT/hAmylin binding” value turn out when B1 was run?
Answer: 157

Question: How did the “Ratio hCT/hAmylin binding” value turn out when B2 was run?
Answer: 82.4

Question: B3 was tested. Which “Ratio hCT/hAmylin binding” value did it give?
Answer: 45.2

Question: How did the “Ratio hCT/hAmylin binding” value turn out when B4 was run?
Answer: 37.5

Question: Which “Ratio hCT/hAmylin binding” value does the source give for B5 here?
Answer: 45.5

Biological target: T2, human calcitonin receptor
Experiment: SPA competition against 125I-calcitonin, membranes with human calcitonin receptor (Assay VII)
How it was run: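 BHK hCTR membranes 35 ng/μL + SPA beads 0.05 mg/well; buffer 50 mM Hepes pH 7.4, 1 mM CaCl2, 5 mM MgCl₂, 0.1% OA, 0.02% Tween20. 120 min, 25° C., shaking. Scintillation count; IC50 by one-site binding competition.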

Question: How did the IC50 turn out when B1 was run?
Answer: 130 nM

Question: With B2 as the binder, how does the IC50 read?
Answer: 53.5 nM

Question: For B3, which IC50 is on record?
Answer: 31.4 nM

Question: B4 was tested. Which IC50 did it give?
Answer: 31.1 nM

Question: B5 was tested. Which IC50 did it give?
Answer: 18 nM
